Measurements published in patent US20230381333A1 (HANMI PHARM, published 2023).
Bridge positions count the residues as written; N and C are the ends. Square brackets hold non-standard residues; d marks the D form. Ends that are not written are not given here. * marks the point of attachment. Acetyl(2-(4-imidazolyl)) = O=C(Cc1c[nH]cn1)*; Aib = CC(C)(N)C(=O)O

T1: human GIP receptor (human, UniProt P48546 22-466)
T1 sequence (looked up): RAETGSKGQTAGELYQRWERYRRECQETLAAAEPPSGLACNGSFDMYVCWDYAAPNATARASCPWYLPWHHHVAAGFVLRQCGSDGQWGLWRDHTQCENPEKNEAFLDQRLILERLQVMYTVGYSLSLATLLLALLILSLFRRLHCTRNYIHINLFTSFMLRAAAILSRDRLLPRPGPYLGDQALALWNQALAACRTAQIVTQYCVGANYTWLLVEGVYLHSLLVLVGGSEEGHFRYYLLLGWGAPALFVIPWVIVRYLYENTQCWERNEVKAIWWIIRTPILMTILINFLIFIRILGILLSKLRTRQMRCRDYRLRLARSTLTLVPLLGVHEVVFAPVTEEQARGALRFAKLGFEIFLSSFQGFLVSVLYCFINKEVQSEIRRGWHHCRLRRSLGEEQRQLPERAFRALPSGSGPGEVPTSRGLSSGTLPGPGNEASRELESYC


Assays:
Experiment in all cases: cell-based or functional assay
human GLP-1 receptor = human GLP-1 receptor (human, UniProt P43220 24-463)
human GCG receptor = human GCG receptor (human, UniProt P47871 26-477)
Chain of human GCG receptor (P47871 26-477): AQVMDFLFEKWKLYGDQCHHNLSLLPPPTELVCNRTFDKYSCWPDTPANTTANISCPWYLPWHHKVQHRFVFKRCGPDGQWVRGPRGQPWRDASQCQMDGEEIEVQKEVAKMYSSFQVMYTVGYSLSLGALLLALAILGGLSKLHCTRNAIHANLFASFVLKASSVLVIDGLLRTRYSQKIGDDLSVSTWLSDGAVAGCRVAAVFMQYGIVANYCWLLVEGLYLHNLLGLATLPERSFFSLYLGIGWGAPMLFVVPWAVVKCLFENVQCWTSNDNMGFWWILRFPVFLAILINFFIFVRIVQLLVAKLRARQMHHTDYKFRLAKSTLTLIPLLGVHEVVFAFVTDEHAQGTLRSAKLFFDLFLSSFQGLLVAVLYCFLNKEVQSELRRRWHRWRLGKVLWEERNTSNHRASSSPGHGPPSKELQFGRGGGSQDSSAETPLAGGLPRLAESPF

human GIP receptor = target: T1, human GIP receptor

Binder	In vitro activity compared to native-type peptide (%), vs GLP-1 (human GLP-1 receptor)	In vitro activity compared to native-type peptide (%), vs Glucagon (human GCG receptor)	In vitro activity compared to native-type peptide (%), vs GIP (human GIP receptor)
Y[Aib]QGTFTSDYSKYLDEKRAKEFVQWLLDCHPSSGQPPPS (bridge 16-20) [triple agonist of SEQ ID NO: 97]	10.5%	62.8%	2.6%
[Acetyl(2-(4-imidazolyl))]GEGTFTSDLSKYLDSRRQQLFVQWLKAGGPSSGAPPPSHG [triple agonist of SEQ ID NO: 11]	1.4%	< 0.1%	< 0.1%
Y[Aib]QGTFTSDYSKALDEKAAKDFVNWLLDHHPSSGQPPPSC (bridge 16-20) [triple agonist of SEQ ID NO: 99]	20.9%	14.9%	57.7%
[Acetyl(2-(4-imidazolyl))]GQGTFTSDLSKQMDSEAQQLFIEWLKNGGPSSGAPPPSHG [triple agonist of SEQ ID NO: 16]	2.1%	< 0.1%	< 0.1%
[Acetyl(2-(4-imidazolyl))]GEGTFISDYSIQLDEIAVQDFVEWLLAQKPSSGAPPPSHG [triple agonist of SEQ ID NO: 13]	< 0.1%	< 0.1%	< 0.1%
Y[Aib]QGTFTSDYSKYLDECRAKEFVQWLLDHHPSSGQPPPS (bridge 16-20) [triple agonist of SEQ ID NO: 21]	17.8%	267%	22.7%
[Acetyl(2-(4-imidazolyl))]GQGTFTSDLSKQMDEERAREFIEWLLAQKPSSGAPPPSHG [triple agonist of SEQ ID NO: 17]	0.2%	< 0.1%	< 0.1%
Y[Aib]QGTFTSDYSKALDEKAAKEFVQWLLDQHPSSGQPPPSC (bridge 16-20) [triple agonist of SEQ ID NO: 100]	42.2%	12.7%	118%
[Acetyl(2-(4-imidazolyl))]GQGTFTSDYSIQLDEIAVRDFVEWLKNGGPSSGAPPPSHG [triple agonist of SEQ ID NO: 14]	28%	< 0.1%	< 0.1%
[Acetyl(2-(4-imidazolyl))]GQGTFTSDLSIQYDSEHQRDFIEWLKDTGPSSGAPPPSHG [triple agonist of SEQ ID NO: 19]	< 0.1%	< 0.1%	< 0.1%
Y[Aib]QGTFTSDYSKALDEKAAKDFVNWLLDQHPSSGQPPPSC (bridge 16-20) [triple agonist of SEQ ID NO: 102]	23.3%	29.5%	58%
H[Aib]QGTFTSDVSSYLLGQAAKQFIAWLVKGGGPSSGAPPPSC [triple agonist of SEQ ID NO: 3]	1.8%	< 0.1%	< 0.1%
Y[Aib]QGTFTSDYSKYLDECRAKEFVQWLLAQKGKKNDWKHNIT (bridge 16-20) [triple agonist of SEQ ID NO: 23]	4.01%	9.3%	< 0.1%
[Acetyl(2-(4-imidazolyl))]GEGTFISDLSKYMDEQAVQLFVEWLMAGGPSSGAPPPSHG [triple agonist of SEQ ID NO: 12]	0.4%	< 0.1%	< 0.1%
Y[Aib]QGTFTSDYSKCLDEKRAKEFVQWLLDHHPSSGQPPPS (bridge 16-20) [triple agonist of SEQ ID NO: 22]	20.1%	140%	59.7%
H[Aib]QGTFTSDVSSYLDGQAQKEFIAWLVKGC [triple agonist of SEQ ID NO: 2]	5.9%	< 0.1%	< 0.1%
Y[Aib]QGTFTSDYSKALDEKAAKEFVNWLLDHHPSSGQPPPSC (bridge 16-20) [triple agonist of SEQ ID NO: 98]	28.1%	8.2%	47.1%
Y[Aib]QGTFTSDYSKALDEKAAKEFVNWLLDQHPSSGQPPPSC (bridge 16-20) [triple agonist of SEQ ID NO: 101]	23.2%	13.9%	40.1%
[Acetyl(2-(4-imidazolyl))]GQGTFTSDLSIQYEEEAQQDFVEWLKDTGPSSGAPPPSHG [triple agonist of SEQ ID NO: 20]	< 0.1%	< 0.1%	< 0.1%
[Acetyl(2-(4-imidazolyl))]GQGTFTSDLSKQMDSERAREFIEWLKNTGPSSGAPPPSHG [triple agonist of SEQ ID NO: 18]	< 0.1%	< 0.1%	< 0.1%
